Measurements from patent US10058586B2, “Use of human small leucine zipper protein in adipocyte differentiation procedure” (Korea University Research and Business Foundation, priority 2013, dated 2018).

How the values were obtained:
[1] = molecular target: T1, PPARγ2 (Homo sapiens, UniProt P37231); test: FABP4 enhancer-luciferase reporter analysis of PPARγ2 transcriptional activity in 293T cells; format: cell-based; set-up: expressed in transfected cells; host or cells: 293T cells; settings: sLZIP 0.1 to 0.5 μg, 10 nM RZD
T1 sequence (P37231 1-505): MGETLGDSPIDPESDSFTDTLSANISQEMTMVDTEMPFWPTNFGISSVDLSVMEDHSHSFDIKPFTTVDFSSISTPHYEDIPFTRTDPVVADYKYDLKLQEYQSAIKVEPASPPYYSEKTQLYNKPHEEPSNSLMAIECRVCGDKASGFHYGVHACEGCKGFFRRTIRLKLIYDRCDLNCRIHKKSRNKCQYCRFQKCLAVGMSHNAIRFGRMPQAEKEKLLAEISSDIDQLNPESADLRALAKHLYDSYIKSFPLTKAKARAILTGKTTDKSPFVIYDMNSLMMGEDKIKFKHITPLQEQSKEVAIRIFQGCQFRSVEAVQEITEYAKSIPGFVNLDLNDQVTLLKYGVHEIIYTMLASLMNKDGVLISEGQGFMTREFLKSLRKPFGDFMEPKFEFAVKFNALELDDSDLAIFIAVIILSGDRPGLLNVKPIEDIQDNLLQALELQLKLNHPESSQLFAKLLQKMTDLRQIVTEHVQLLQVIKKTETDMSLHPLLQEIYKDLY
Method: Appropriately transfected cells were washed with cold PBS twice, and a reporter lysis buffer (Promega) was used and lysed in a culture dish. Luciferase analysis was performed using a luciferase analysis system (Promega Corporation, Madison, Wis.). A luciferase activity was recorded in Luminometer 20/20^n (Turner BioSystems, Sunnyvale, Calif.) according to instructions of the manufacturer. The luciferase activity was normalized to a β-galactosidase activity. For β-galactosidase analysis, CMV-β-galactosidase was transfected with luciferase reporter genes. All pieces of data were represented as mean±standard deviation of the results from at least three independent experiments.
A DNA binding ability of sLZIP with various elements in the FABP4 enhancer region was examined. For this purpose, recombinant His-sLZIP fusion proteins (3 μg) were incubated with γ-^32P-labeled oligonucleotide probes containing expected CREB binding elements (FIG. 7B). The γ-^32P-labeled oligonucleotide probes were incubated while an amount of purified His-sLZIPs was increased. […]
Adipocyte differentiation is a well-regulated procedure. […] A promoter activity was measured according to luciferase analysis (FIG. 8B). […] Total RNA was extracted from the cells, and an mRNA expression level of mouse LZIPs was measured using RT-PCR analysis. […]

[2] = test system: CREB element in the FABP4 enhancer; test: Chromatin immunoprecipitation (ChIP) with HA-sLZIP in C3H10T1/2 cells; format: cell-based; settings: RZD treated or not
Method: C3H10T1/2 cells grown in a 100-mm culture dish were infected with adenovirus HA-sLZIP. After the infection, the cells remained in a growth medium until the cells reaches 100% confluence, and the medium was exchanged with a differentiation medium. The cells were washed with 1×PBS, the medium was treated with 1% formaldehyde for 10 minutes at room temperature, and then glycine was added for 5 minutes at a final concentration of 0.125 M. The cells were strapped with PBS, and centrifuged at 1000×g for 5 minutes at 4° C. ChIP analysis was performed such that anti-HA antibodies and anti-rabbit IgG serving as an internal control group were used and precipitated together with a DNA-protein complex. An enhancer region of FABP4 including a functional CREs was amplified from the prepared DNA.
A DNA binding ability of sLZIP with various elements in the FABP4 enhancer region was examined. For this purpose, recombinant His-sLZIP fusion proteins (3 μg) were incubated with γ-^32P-labeled oligonucleotide probes containing expected CREB binding elements (FIG. 7B). The γ-^32P-labeled oligonucleotide probes were incubated while an amount of purified His-sLZIPs was increased. For competition analysis, unlabeled CREB oligonucleotide probes of 100-fold excess were used and His antibodies were added to a reaction mixture on ice for additional 40 minutes (FIG. 7C). […]

B1: sLZIP: human small leucine-zipper protein, isoform of LZIP, 354 amino acids, no transmembrane domain; GenBank FJ263669, SEQ ID NO: 1 (protein, listed as Homo sapiens)
chain: MELELDAGDQDLLAFLLEESGDLGTAPDEAVRAPLDWALPLSEVPSDWEVDDLLCSLLSPPASLNILSSSNPCLVHHDHTYSLPRETVSMDLESESCRKEGTQMTPQHMEELAEQEIARLVLTDEEKSLLEKEGLILPETLPLTKTEEQILKRVRRKIRNKRSAQESRRKKKVYVGGLESRVLKYTAQNMELQNKVQLLEEQNLSLLDQLRKLQAMVIEISNKTSSSSMYSSDTRGSLPAEHGVLSRQLRALPSEDPYQLELPALQSEVPKDSTHQWLDGSDCVLQAPGNTSCLLHYMPQAPSAEPPLEWPFPDLFSEPLCRGPILPLQANLTRKGGWLPTGSPSVILQDRYSG
transcriptional activity of PPARγ2 (FABP4 enhancer-luciferase) [1]: decreased the transcriptional activity of PPARγ2 in a concentration-dependent manner
recruitment to CREB element in the FABP4 enhancer (ChIP) [2]: gathered in the CREB element in the FABP4 enhancer
